Assay results taken from paper PMC12532034 (Cancer immunology research, 2025).

Target: T1, GST-Rb 379–928 (UniProt P06400 379-928)
T1 sequence (looked up): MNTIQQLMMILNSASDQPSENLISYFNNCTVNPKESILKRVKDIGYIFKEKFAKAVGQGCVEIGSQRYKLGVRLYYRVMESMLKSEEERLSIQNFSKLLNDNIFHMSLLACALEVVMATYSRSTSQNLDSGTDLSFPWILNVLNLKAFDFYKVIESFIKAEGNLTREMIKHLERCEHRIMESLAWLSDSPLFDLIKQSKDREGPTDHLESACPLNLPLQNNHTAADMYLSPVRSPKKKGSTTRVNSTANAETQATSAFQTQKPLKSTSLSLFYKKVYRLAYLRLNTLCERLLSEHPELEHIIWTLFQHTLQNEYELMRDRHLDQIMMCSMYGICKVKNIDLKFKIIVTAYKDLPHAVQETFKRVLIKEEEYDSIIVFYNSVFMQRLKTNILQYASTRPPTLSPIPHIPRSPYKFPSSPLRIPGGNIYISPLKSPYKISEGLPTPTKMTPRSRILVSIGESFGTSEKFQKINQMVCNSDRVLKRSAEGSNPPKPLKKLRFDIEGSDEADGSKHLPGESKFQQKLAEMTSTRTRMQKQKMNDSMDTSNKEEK
Experiment: AlphaScreen or HTRF

B1: MBP-E2F1 (natural protein)
chain: not shown
binding result: binds
